# According to article PMC7521653, “Structural analysis of the LDL receptor–interacting FERM domain in the E3 ubiquitin ligase IDOL reveals an obscured substrate-binding site” (The Journal of Biological Chemistry, 2020):
# B1: IDOL F3ab subdomain (residues 183-283) (domain or fragment, human, UniProt Q8WY64 183-283, looked up)
# chain: ENYGIEWHSVRDSEGQKLLIGVGPEGISICKDDFSPINRIAYPVVQMATQSGKNVYLTVTKESGNSIVLLFKMISTRAASGLYRAITETHAFYRCDTVTSA
# notes: IDOL (MYLIP), human, F3ab subdomain, residues 183-283; E. coli codon-optimised gene in pET28(a); The construct holds an incomplete F3c' (279-283 of 279-300); also called FERM F3ab; third lobe of the FERM domain; not shown: His6, N-terminal, cleaved
# Biological target: the molecule itself
# Test: crystal structure; F3ab (183-283), space group P2(1)2(1)2(1), three copies in the asymmetric unit; crystals from 100 mM Hepes, pH 7.0, 10% (w/v) PEG 6000
protein,measurement,value
B1,binding result,binds
